B1: scFv of huAbF46: scFv of structure VH-linker-VL from heavy and light chain variable regions of huAbF46 (protein)
scFv: EVQLVESGGGLVQPGGSLRLSCAASGFTFTDYYMSWVRQAPGKGLEWLGFIRNKANGYTTEYSASVKGRFTISRDNSKNTLYLQMNSLRAEDTAVYYCARDNWFAYWGQGTLVTVSSGLGGLGGGGSGGGGSGGSSGVGSDIQMTQSPSSLSASVGDRVTITCKSSQSLLASGNQNNYLAWHQQKPGKAPKMLIIWASTRVSGVPSRFSGSGSGTDFTLTISSLQPEDFATYYCQQSYSAPLTFGQGTKVEIKR
B2: L3-1Y/IgG2: anti-c-Met antibody: huAbF46-H4-A1 variable regions, human IgG2 hinge and constant region, human kappa light chain with His36Tyr (antibody)
heavy: EVQLVESGGGLVQPGGSLRLSCAASGFTFTDYYMSWVRQAPGKGLEWLGFIRNKANGYTTEYSASVKGRFTISRDNSKNTLYLQMNSLRAEDTAVYYCARDNWFAYWGQGTLVTVSSASTKGPSVFPLAPCSRSTSESTAALGCLVKDYFPEPVTVSWNSGALTSGVHTFPAVLQSSGLYSLSSVVTVPSSNFGTQTYTCNVDHKPSNTKVDKTVERKCCVECPPCPAPPVAGPSVFLFPPKPKDTLMISRTPEVTCVVVDVSHEDPEVQFNWYVDGVEVHNAKTKPREEQFNSTFRVVSVLTVVHQDWLNGKEYKCKVSNKGLPAPIEKTISKTKGQPREPQVYTLPPSREEMTKNQVSLTCLVKGFYPSDIAVEWESNGQPENNYKTTPPMLDSDGSFFLYSKLTVDKSRWQQGNVFSCSVMHEALHNHYTQKSLSLSPGK
light: DIQMTQSPSSLSASVGDRVTITCKSSQSLLASGNQNNYLAWYQQKPGKAPKMLIIWASTRVSGVPSRFSGSGSGTDFTLTISSLQPEDFATYYCQQSYSRPYTFGQGTKVEIKRTVAAPSVFIFPPSDEQLKSGTASVVCLLNNFYPREAKVQWKVDNALQSGNSQESVTEQDSKDSTYSLSSTLTLSKADYEKHKVYACEVTHQGLSSPVTKSFNRGEC

Key:
[1] = test system: MKN45 re#1 gastric cancer cells; test: Cell proliferation, CellTiter Glo assay, anti-c-Met antibody resistance induced cell line MKN45 re#1; type: cell-based; conditions: 72 hours; for cell proliferation inhibition effect: single treatment: L3-1Y/IgG2 (2 μg/ml) only or linsitinib (10 uM) only, FIG. 7
Method: (§1) In particular, in order to obtain anti-c-Met antibody resistant MKN45 gastric cancer cells, MKN45 gastric cancer cells were administered with L3-1Y/IgG2 for at least 3 months by increasing the administration concentration. The amount of L3-1Y/IgG2 administered was increased from 1 μg/ml to 10 μg/ml, until resistance to L3-1Y/IgG2 is induced. The obtained L3-1Y/IgG2 resistant clones were named as MKN45re#1 and MKN45re#24, respectively.
(§2) In order to confirm the acquisition of resistance to L3-1Y/IgG2, the prepared L3-1Y/IgG2 resistant clones (MKN45 re#1 and MKN45 re#24) and MKN45 with no resistance were administered with various concentrations of L3-1Y/IgG2 (see FIG. 9). 72 hours after the antibody administration, the number of living cells was measured through CellTiter Glo assay (Promega, G7573).
(§3) The prepared L3-1Y/IgG2 resistance induced cell lines MKN45re#1 and MKN45re#24 were co-administered with L3-1Y/IgG2 and an IGF-1R inhibitor, to examine changes in cell proliferation of the L3-1Y/IgG2 resistance induced cell lines. Each of the L3-1Y/IgG2 resistant MKN45re#1 and MKN45re#24 cell lines was seeded on a 96-well plate at the amount of 10000 cells/well (medium: RPMI (GIBCO); culture conditions: 5% CO2 and 37° C.), and on the next day, treated with L3-1Y/IgG2 (2 μg/ml) and linsitinib (10 uM) together. 72 hours after the co-treatment, the number of living cells was counted by CellTiter Glo assay (Promega, G7573). For comparison, the same experiments were conducted using a control group with no treatment of L3-1Y/IgG or linsitinib, a group treated with L3-1Y/IgG (2 μg/ml) only, and a group treated with linsitinib (10 uM) only.

[2] = test system: MKN45 re#24 gastric cancer cells; test: Cell proliferation, CellTiter Glo assay, anti-c-Met antibody resistance induced cell line MKN45 re#24; type: cell-based; conditions: 72 hours; for cell proliferation inhibition effect: single treatment: L3-1Y/IgG2 (2 μg/ml) only or linsitinib (10 uM) only, FIG. 8
Method: as §1, §2, §3

[3] = molecular target: c-Met (Homo sapiens, UniProt P08581); test: Specificity of expressed scFv to c-Met; type: binding; conditions: after expression
Excerpt: For use in constructing an scFv of the huAbF46 antibody from the heavy and light chain variable regions of the huAbF46 antibody, a gene was designed to have the structure of “VH-linker-VL” for each of the heavy and the light chain variable region, with the linker including the amino acid sequence “[…]” (SEQ ID NO: 54). A polynucleotide sequence (SEQ ID NO: 55) encoding the designed scFv of huAbF46 was synthesized in Bioneer and an expression vector for the polynucleotide had the nucleotide sequence of SEQ ID NO: 56.

[4] = test system: MKN45 cells; test: Cell proliferation, non-resistant MKN45 cells; type: cell-based
Method: as §2

[5] = test system: Hs746T cell line; test: Anticancer effect of anti-c-Met antibody used alone, Hs746T; type: cell-based
[6] = test system: SNU-5 cell line; test: Anticancer effect of anti-c-Met antibody used alone, SNU-5; type: cell-based
[7] = test system: SNU-668 cell line; test: Anticancer effect of anti-c-Met antibody used alone, SNU-668; type: cell-based
[8] = test system: YCC-11 cell line; test: Anticancer effect of anti-c-Met antibody used alone, YCC-11; type: cell-based
[9] = various, increasing concentrations of L3-1Y/IgG2, FIG. 9

Chain of c-Met (P08581 25-1390): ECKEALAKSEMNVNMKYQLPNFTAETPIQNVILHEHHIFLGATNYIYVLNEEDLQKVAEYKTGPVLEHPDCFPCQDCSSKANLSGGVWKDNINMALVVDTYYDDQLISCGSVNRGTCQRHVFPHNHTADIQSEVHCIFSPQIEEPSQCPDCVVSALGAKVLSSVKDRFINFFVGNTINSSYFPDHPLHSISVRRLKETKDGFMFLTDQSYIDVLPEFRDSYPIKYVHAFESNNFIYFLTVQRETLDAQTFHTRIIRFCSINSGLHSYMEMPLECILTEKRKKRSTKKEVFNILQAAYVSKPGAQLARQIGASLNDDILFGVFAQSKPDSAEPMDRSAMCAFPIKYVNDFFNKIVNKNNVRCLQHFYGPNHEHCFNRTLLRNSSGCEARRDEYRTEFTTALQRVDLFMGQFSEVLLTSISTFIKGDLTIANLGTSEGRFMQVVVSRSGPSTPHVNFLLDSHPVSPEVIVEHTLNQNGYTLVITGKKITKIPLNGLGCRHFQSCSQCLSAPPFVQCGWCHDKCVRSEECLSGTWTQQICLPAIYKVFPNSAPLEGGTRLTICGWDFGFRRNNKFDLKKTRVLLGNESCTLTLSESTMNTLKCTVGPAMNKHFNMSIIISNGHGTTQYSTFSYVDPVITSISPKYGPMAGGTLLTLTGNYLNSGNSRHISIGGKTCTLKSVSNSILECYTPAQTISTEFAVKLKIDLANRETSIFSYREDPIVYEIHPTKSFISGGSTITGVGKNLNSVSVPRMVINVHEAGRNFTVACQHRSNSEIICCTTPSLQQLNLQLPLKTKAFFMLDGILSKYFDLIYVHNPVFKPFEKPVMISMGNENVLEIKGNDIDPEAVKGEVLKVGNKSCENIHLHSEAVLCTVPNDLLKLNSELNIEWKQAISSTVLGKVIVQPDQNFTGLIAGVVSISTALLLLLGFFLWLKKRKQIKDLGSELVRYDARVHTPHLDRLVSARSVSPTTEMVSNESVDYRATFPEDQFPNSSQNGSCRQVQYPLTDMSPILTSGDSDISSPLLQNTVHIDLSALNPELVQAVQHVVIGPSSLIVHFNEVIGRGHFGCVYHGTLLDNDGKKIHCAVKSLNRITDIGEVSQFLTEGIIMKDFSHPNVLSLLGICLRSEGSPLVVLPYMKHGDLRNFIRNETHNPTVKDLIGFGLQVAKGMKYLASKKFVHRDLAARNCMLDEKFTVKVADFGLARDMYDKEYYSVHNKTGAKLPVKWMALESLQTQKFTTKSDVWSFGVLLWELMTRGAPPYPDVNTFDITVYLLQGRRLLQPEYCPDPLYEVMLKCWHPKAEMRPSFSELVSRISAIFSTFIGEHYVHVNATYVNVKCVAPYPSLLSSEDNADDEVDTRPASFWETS

| specificity to c-Met [3] | Molecule | cell proliferation inhibition effect [1] | cell proliferation inhibition effect [2] | proliferation (number of living cells) [1, 9] | proliferation (number of living cells) [2, 9] | effect (cancer cell proliferation inhibition effect) when administered alone [4] | anticancer effect when used alone [5] | anticancer effect when used alone [6] | anticancer effect when used alone [7] | anticancer effect when used alone [8] |
| --- | --- | --- | --- | --- | --- | --- | --- | --- | --- | --- |
| – | CC1(O)CC(c2nc(-c3ccc4ccc(-c5ccccc5)nc4c3)c3c(N)nccn23)C1 (stereo not drawn) [linsitinib, 3-[8-Amino-1-(2-phenyl-7-quinolyl)imidazo[1,5-a]pyrazin-3-yl]-1-methyl-cyclobutanol, reference compound] | no cell proliferation inhibition effect | no cell proliferation inhibition effect | – | – | – | – | – | – | – |
| exhibit specificity to c-Met | B1 | – | – | – | – | – | – | – | – | – |
| – | B2 | no cell proliferation inhibition effect | no cell proliferation inhibition effect | not inhibited | not inhibited | exhibits its effect | exhibits anticancer effect | exhibits anticancer effect | does not exhibit anticancer effect | does not exhibit anticancer effect |

Source: patent US10064939B2, “Combination therapy using c-Met inhibitor and IGF-1R inhibitor for c-Met inhibitor resistant cancers” (Samsung Electronics Co., Ltd., priority 2014, dated 2018)
